Results taken from patent publication US20020045591A1, “Methods and therapeutic compositions for treating cancer” (priority 1998, published 2002).

B1: β-catenin: transfected β-catenin cDNA construct (protein, UniProt P35222 2-781, looked up)
Catenin beta-1: ATQADLMELDMAMEPDRKAAVSHWQQQSYLDSGIHSGATTTAPSLSGKGNPEEEDVDTSQVLYEWEQGFSQSFTQEQVADIDGQYAMTRAQRVRAAMFPETLDEGMQIPSTQFDAAHPTNVQRLAEPSQMLKHAVVNLINYQDDAELATRAIPELTKLLNDEDQVVVNKAAVMVHQLSKKEASRHAIMRSPQMVSAIVRTMQNTNDVETARCTAGTLHNLSHHREGLLAIFKSGGIPALVKMLGSPVDSVLFYAITTLHNLLLHQEGAKMAVRLAGGLQKMVALLNKTNVKFLAITTDCLQILAYGNQESKLIILASGGPQALVNIMRTYTYEKLLWTTSRVLKVLSVCSSNKPAIVEAGGMQALGLHLTDPSQRLVQNCLWTLRNLSDAATKQEGMEGLLGTLVQLLGSDDINVVTCAAGILSNLTCNNYKNKMMVCQVGGIEALVRTVLRAGDREDITEPAICALRHLTSRHQEAEMAQNAVRLHYGLPVVVKLLHPPSHWPLIKATVGLIRNLALCPANHAPLREQGAIPRLVQLLVRAHQDTQRRTSMGGTQQQFVEGVRMEEIVEGCTGALHILARDVHNRIVIRGLNTIPLFVQLLYSPIENIQRVAAGVLCELAQDKEAAEAIEAEGATAPLTELLHSRNEGVATYAAAVLFRMSEDKPQDYKKRLSVELTSSLFRTEPMAWNETADLGLDIGAQGEPLGYRQDDPSYRSFHSGGYGQDALGMDPMMEHEMGGHHPGADYPVDGLPDLGHAQDLMDGLPPGDSNQLAWFDTDL
B2: N-cadherin: Full length chicken N-cadherin cloned into the pECE expression vector (protein)
chain: DWVIPPINLPENSRGPFPQELVRIRSDRDKSLSLRYSVTGPGADQPPTGIFIINPISGQLSVTKPLDREQIASFHLRAHAVDVNGNQVENPIDIVINVIDMNDNRPEFLHQVWNGTVPEGSKPGTYVMTVTAIDADDPNAQNGMLRYRILSQAPSSPSPNMFTINNETGDIITVAAGLDREKVQQYTLIIQATDMEGNPTYGLSNTATAVITVTDVNDNPPEFTAMTFYGEVPENRVDVIVANLTVTDKDQPHTPAWNARYQMTGGDPTGQFTILTDPNSNDGLVTVVKPIDFETNRMFVLTVAAENQVPLAKGIQHPPQSTATVSITVIDVNESPYFVPNPKLVRQEEGLLAGSMLTTFTARDPDRYMQQTSLRYSKLSDPANWLKIDPVNGQITTTAVLDRESIYVQNNMYNATFLASDNGIPPMSGTGTLQIYLLDINDNAPQVNPKEATTCETLQPNAINITAVDPDIDPNAGPFAFELPDSPPSIKRNWTIVRISGDHAQLSLRIRFLEAGIYDVPIVITDSGNPHASSTSVLKVKVCQCDINGDCTDVDRIVGAGLGTGAIIAILLCIIILLILVLMFVVWMKRRDKERQAKQLLIDPEDDVRDNILKYDEEGGGEEDQDYDLSQLQQPDTVEPDAIKPVGIRRLDERPIHAEPQYPVRSAAPHPGDIGDFINEGLKAADNDPTAPPYDSLLVFDYEGSGSTAGSLSSLNSSSSGGEQDYDYLNDWGPRFKKLADMYGGGDD

Columns and labels:
[1] = tested on: LEF-1-driven transcription; experiment: LEF-1 consensus (TOPFLASH) transactivation in 293 cells; format: cell-based, human; conditions: FIG. 18B
Method: (§1) Cell Culture and Transfections: Canine kidney epithelial cells MDCK, human fibrosarcoma HT1080, 293-T human embryonic kidney cells, Balb/C mouse 3T3 and human colon carcinoma SW480 cell lines were cultured in Dulbecco's modified Eagle's medium supplemented with 10% calf serum (Gibco, Grand Island, N.Y.) at 37° C. in the presence of 7% CO2. The human renal carcinoma cell line KTCTL60 was grown in RPMI medium and 10% calf serum. Cells were transiently transfected with the cDNA constructs described below, using Ca^2+-phosphate or lipofectamine (Gibco) and the expression of the transgene was assessed between 24 and 48 hours after transfection. In some experiments, the expression of the stably transfected NH2 terminus-deleted β-catenin (Δ57) was enhanced in HT1080 cells by overnight treatment with 2 mM sodium butyrate.
(§2) A plasmid encoding β-galactosidase (0.5 μg) was cotransfected to enable normalization for transfection efficiency. The relevant plasmid expressing catenin constructs (4.5 μg) was co-transfected with the reporter, or an empty expression vector was included. After 24-48 hours expression of the reporter (luciferase) and the control (β-galactosidase) genes were determined using enzyme assay systems from Promega (Madison, Wis.).

[2] = tested on: β-catenin-mediated transactivation; experiment: TOPFLASH/FOPFLASH luciferase transactivation in CHO cells; format: cell-based; conditions: TOPFLASH with LEF-1 and β-catenin vs TOPFLASH and LEF-1 without β-catenin
Method: (§3) Cell culture and transfections: CHO and SW480 human colon carcinoma cells were cultured in Dulbecco's modified Eagle's medium containing 10% fetal calf serum in an 8% CO2 incubator at 37° C. Transfections were performed using Lipofectamine (Gibco, BRL, USA) according to the manufacturer's instructions. Stably transfected CHO clones were generated by co-transfection with a plasmid encoding the puromycin resistance gene. Two days after transfection, cells were replated in the presence of 10 μg/ml puromycin (Sigma, Holon, Israel). Stable clones were isolated 2 weeks later and tested for the expression of the transgene by Western blot analysis.
(§4) Transactivation assays: CHO cells were transfected with TOPFLASH or FOPFLASH vectors (van de Wetering et al., 1997, ibid) and with pCDNA3 coding for β-galactosidase to normalize for transfection efficiency. The transfection mixture also contained either β-catenin, LEF-1 or cadherin derivatives in different combinations, as indicated. SW480 cells were transfected with TOPFLASH and cadherin derivatives. […] The reactions were stopped with 1 M Na2CO3 and the absorbance at 420 nm was determined. […] The luciferase reaction was monitored by a TD-20e luminometer (Turner, USA) and normalized for the β-galactosidase activity. […]

β-catenin [3] = target: T1, β-catenin (Cricetulus griseus, UniProt G3H996); experiment: β-catenin level in CHO cells by Western blot; format: cell-based; conditions: stably transfected CHO cells, FIG. 2A
T1 construct: resulting from the stabilization of the endogenous β-catenin by the transfected cadherin derivatives; endogenous in cells; host or cells: CHO cells, stably or transiently transfected with cadherin derivatives only
T1 sequence (G3H996 1-781): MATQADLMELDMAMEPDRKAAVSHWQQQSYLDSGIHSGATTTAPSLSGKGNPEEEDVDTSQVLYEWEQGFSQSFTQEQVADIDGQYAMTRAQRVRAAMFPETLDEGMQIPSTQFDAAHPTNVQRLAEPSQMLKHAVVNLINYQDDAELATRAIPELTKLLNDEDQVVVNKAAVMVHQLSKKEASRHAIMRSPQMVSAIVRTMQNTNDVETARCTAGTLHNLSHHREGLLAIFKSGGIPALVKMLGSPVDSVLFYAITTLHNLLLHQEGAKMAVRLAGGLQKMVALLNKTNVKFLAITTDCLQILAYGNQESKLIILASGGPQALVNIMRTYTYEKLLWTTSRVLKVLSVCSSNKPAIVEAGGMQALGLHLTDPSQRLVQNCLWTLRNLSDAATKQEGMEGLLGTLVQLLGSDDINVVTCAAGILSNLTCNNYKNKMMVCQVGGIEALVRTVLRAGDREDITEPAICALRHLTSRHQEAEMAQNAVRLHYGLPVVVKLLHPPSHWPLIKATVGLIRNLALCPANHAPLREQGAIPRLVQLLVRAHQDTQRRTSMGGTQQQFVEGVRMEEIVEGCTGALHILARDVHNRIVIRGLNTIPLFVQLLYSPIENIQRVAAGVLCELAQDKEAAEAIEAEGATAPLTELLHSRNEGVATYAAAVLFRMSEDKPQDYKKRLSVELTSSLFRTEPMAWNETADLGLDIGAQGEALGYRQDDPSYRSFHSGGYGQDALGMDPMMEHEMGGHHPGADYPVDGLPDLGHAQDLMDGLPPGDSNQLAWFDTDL
Method: as §3
Immunoblotting and immunoprecipitation: The following antibodies were used: polyclonal pan-cadherin or monoclonal anti cadherin (CH-19) and polyclonal anti β-catenin antibodies were from Sigma (Holon, Israel). Monoclonal anti β-catenin, 5H10 (from M. Wheelock), anti IL2Rα (from UBI), anti flag (M2, from IBI), anti HA (clone 12CA5, from Boehringer Mannheim, Germany), anti GFP (polyclonal, from Clontech, Palo Alto, Calif.), anti LEF-1 (polyclonal, kindly provided by Dr. R. Grosschedl). […]

SW480 cells = experiment: Immunofluorescence localization in SW480 cells (Example 1); format: cell-based, human; conditions: transfected SW480 cells, FIG. 6B
Source text: (§5) Immunofluorescence microscopy: Cells cultured on glass coverslips were fixed with 3% paraformaldehyde in phosphate-buffered saline (PBS) and permeabilized with 0.5% Triton X-100. CHO cells were immunofluorescently labeled as described (Levenberg S. et al. (1998) Long-range and selective autoregulation of cell-cell and cell-matrix adhesions by cadherin or integrin ligands. J. Cell Sci. 111:347-357). Nuclei were visualized using DAPI and the fluorescence was examined using a Zeiss Axiophot microscope and a x100/1.3 Planapochromat objective.

[4] = tested on: β-catenin-mediated transactivation; experiment: TOPFLASH luciferase transactivation in SW480 cells (Example 1); format: cell-based, human; conditions: SW480 cells transfected with TOPFLASH and N-cadherin derivative, FIG. 6A
Method: as §3, §4

β-catenin [5] = target: T1, β-catenin; experiment: Co-immunoprecipitation of cadherin derivatives with β-catenin in CHO cells; format: binding; conditions: stably transfected CHO cells, FIG. 2B
Source text: Immunoblotting and immunoprecipitation: The following antibodies were used: polyclonal pan-cadherin or monoclonal anti cadherin (CH-19) and polyclonal anti β-catenin antibodies were from Sigma (Holon, Israel). Monoclonal anti β-catenin, 5H10 (from M. Wheelock), anti IL2Rα (from UBI), anti flag (M2, from IBI), anti HA (clone 12CA5, from Boehringer Mannheim, Germany), anti GFP (polyclonal, from Clontech, Palo Alto, Calif.), anti LEF-1 (polyclonal, kindly provided by Dr. R. Grosschedl). Secondary antibodies for Western blotting were goat anti rabbit or anti mouse conjugated to HRP (Amersham, Buckinghampshire, UK), and for immunofluorescence analysis the secondary antibodies were FITC-goat anti mouse (Cappel, USA) or rhodamine-anti rabbit antibodies (from Jackson Immuno-Research, West Grove, Pa.). Cells were harvested in Laemmli's sample buffer and equal amounts of total cell protein from the different clones, or from transient transfections, were separated by SDS-PAGE, electrotransferred to nitrocellulose and incubated with the different antibodies. For immunoprecipitation, cells were harvested in IP buffer (20 mM Tris pH 8.0, 1% Triton X-100, 140 mM NaCl, 10% glycerol, 1 mM EGTA, 1.5 mM MgCl2, 1 mM DTT, 1 mM sodium vanadate, and 50 μg/ml PMSF). […]

[6] = tested on: β-catenin-dependent transactivation; experiment: LEF-1 consensus luciferase transactivation in SW480 cells (Example 2); format: cell-based, human; conditions: co-transfection, FIG. 19A
Method: as §1, §2

CHO cells = experiment: Immunofluorescence localization in CHO cells; format: cell-based; conditions: stably transfected CHO cells, FIG. 4
Source text: as §5

Molecule | activation of LEF-1-driven transcription [1] | increase in luciferase activity [2] | effect on β-catenin levels (β-catenin [3]) | subcellular localization of β-catenin (SW480 cells) | inhibition of TOPFLASH reporter (luciferase) activity [4] | interaction with β-catenin by co-immunoprecipitation (β-catenin [5]) | effect on constitutive LEF-1 driven transcription [6] | subcellular localization of cadherin derivative and β-catenin (CHO cells)
B1 | potent transcriptional co-activator | about 5 fold |  |  |  |  |  | 
B2 |  |  | increase in β-catenin levels | binding of the endogenous β-catenin to the plasma membrane | about 70% | direct interaction | effectively blocked | mainly associated with cell-cell junctions
